Assay results taken from patent US20040198654A1 (Eli Lilly, published 2004).
Where no end group is shown, it is not given here.

biological target: GLP-1 receptor; assay: cell-based or functional assay

Which “GLP-1 receptor activation relative to Val^8-GLP-1(7-37)OH” value does the source give for HVEGTYTSDYSSYLEGQAAKEFIAWLVKGRG-OH [Val^8-Tyr^12-Tyr^16-GLP-1(7-37)OH] here?
The value was 1.5 fold of Val^8-GLP-1(7-37)OH.

How did the “GLP-1 receptor activation relative to Val^8-GLP-1(7-37)OH” value turn out when HVEGTFTSDVSSYLEEQAAKIFIAWLVKGRG-OH [Val^8-Glu^22-Ile^27-GLP-1(7-37)OH] was run?
The value was 2 fold of Val^8-GLP-1(7-37)OH.

HVEGTFTSDVSSYLEGQAAKEFIEWLVKGRG-OH [Val^8-Glu^30-GLP-1(7-37)OH] was tested. Which “GLP-1 receptor activation relative to Val^8-GLP-1(7-37)OH” value did it give?
The value was 0.7 fold of Val^8-GLP-1(7-37)OH.

With HGEGTFTSDVSSYLEGQAAKEFIAWLVKGRG-OH [Gly^8-GLP-1(7-37)OH] as the binder, how does the “GLP-1 receptor activation relative to Val^8-GLP-1(7-37)OH” value read?
The value was 1.7 fold of Val^8-GLP-1(7-37)OH.

For HVEGTFTSDVSSYFEEQAAKEFIAWLVKGRG-OH [Val^8-Phe^20-Glu^22-GLP-1(7-37)OH], which “GLP-1 receptor activation relative to Val^8-GLP-1(7-37)OH” value is on record?
Its value is 2.7 fold of Val^8-GLP-1(7-37)OH.

HVEGTFTSDVSSYLEGQALKEFIAWLVKGRG-OH [Val^8-Leu^25-GLP-1(7-37)OH] was tested. Which “GLP-1 receptor activation relative to Val^8-GLP-1(7-37)OH” value did it give?
Its value is 0.5 fold of Val^8-GLP-1(7-37)OH.

How did the “GLP-1 receptor activation relative to Val^8-GLP-1(7-37)OH” value turn out when HVEGTFTSDVSSYLEEQALKEFIAWLVKGRG-OH [Val^8-Glu^22-Leu^25-GLP-1(7-37)OH] was run?
Its value is 2.8 fold of Val^8-GLP-1(7-37)OH.

With HVEGTFTSDWSSYLEEQAVKEFIAWLVKGRG-OH [Val^8-Trp^16-Glu^22-Val^25-GLP-1(7-37)OH] as the binder, how does the “GLP-1 receptor activation relative to Val^8-GLP-1(7-37)OH” value read?
The value was 4.4 fold of Val^8-GLP-1(7-37)OH.

HVEGTFTSDYSSFLEGQAAKEFIAWLVKGRG-OH [Val^8-Tyr^16-Phe^19-GLP-1(7-37)OH] was tested. Which “GLP-1 receptor activation relative to Val^8-GLP-1(7-37)OH” value did it give?
Its value is 2.8 fold of Val^8-GLP-1(7-37)OH.

For HVEGTFTSDISSYLEEQAAKEFIAWLVKGRG-OH [Val^8-Ile^16-Glu^22-GLP-1(7-37)OH], which “GLP-1 receptor activation relative to Val^8-GLP-1(7-37)OH” value is on record?
The value was 3.3 fold of Val^8-GLP-1(7-37)OH.

HVEGTFTSDLSSYLEGQAAKEFIAWLVKGRG-OH [Val^8-Leu^16-GLP-1(7-37)OH] was tested. Which “GLP-1 receptor activation relative to Val^8-GLP-1(7-37)OH” value did it give?
Its value is 1.1 fold of Val^8-GLP-1(7-37)OH.

For HVEGTFTSDVSKYLEEQAAKEFIAWLVKGRG-OH [Val^8-Lys^18-Glu^22-GLP-1(7-37)OH], which “GLP-1 receptor activation relative to Val^8-GLP-1(7-37)OH” value is on record?
Its value is 2.5 fold of Val^8-GLP-1(7-37)OH.

Which “GLP-1 receptor activation relative to Val^8-GLP-1(7-37)OH” value does the source give for HVEGTFTSDVSFYLEEQAAKEFIAWLVKGRG-OH [Val^8-Phe^18-Glu^22-GLP-1(7-37)OH] here?
Its value is 2 fold of Val^8-GLP-1(7-37)OH.

With HVEGTYTSDVSSYLEGQAAKEFIAWLVKGRG-OH [Val^8-Tyr^12-GLP-1(7-37)OH] as the binder, how does the “GLP-1 receptor activation relative to Val^8-GLP-1(7-37)OH” value read?
The value was 1.7 fold of Val^8-GLP-1(7-37)OH.

HVEGTWTSDVSSYLEEQAAKEFIAWLVKGRG-OH [Val^8-Trp^12-Glu^22-GLP-1(7-37)OH] was tested. Which “GLP-1 receptor activation relative to Val^8-GLP-1(7-37)OH” value did it give?
Its value is 1.7 fold of Val^8-GLP-1(7-37)OH.

With HVEGTFTSDVSSWLEEQAAKEFIAWLVKGRG-OH [Val^8-Trp^19-Glu^22-GLP-1(7-37)OH] as the binder, how does the “GLP-1 receptor activation relative to Val^8-GLP-1(7-37)OH” value read?
Its value is 3.2 fold of Val^8-GLP-1(7-37)OH.

HVEGTYTSDVSSYLEGQAAKEFIAWLVKGR-NH2 [Val^8-Tyr^12-GLP-1(7-36)NH2] was tested. Which “GLP-1 receptor activation relative to Val^8-GLP-1(7-37)OH” value did it give?
The value was 1.1 fold of Val^8-GLP-1(7-37)OH.

HVEGTFTSDLSSYLEEQAAKEFIAWLVKGRG-OH [Val^8-Leu^16-Glu^22-GLP-1(7-37)OH] was tested. Which “GLP-1 receptor activation relative to Val^8-GLP-1(7-37)OH” value did it give?
Its value is 4.3 fold of Val^8-GLP-1(7-37)OH.

For HVEGTFTSDVSSYLEEQAAKEFIAWLVKGRH-OH [Val^8-Glu^22-His^37-GLP-1(7-37)OH], which “GLP-1 receptor activation relative to Val^8-GLP-1(7-37)OH” value is on record?
The value was 4.7 fold of Val^8-GLP-1(7-37)OH.

Which “GLP-1 receptor activation relative to Val^8-GLP-1(7-37)OH” value does the source give for HVEGTFTSDWSSYLEEQAAKEFIAWLIKGRG-OH [Val^8-Trp^16-Glu^22-Ile^33-GLP-1(7-37)OH] here?
The value was 4.1 fold of Val^8-GLP-1(7-37)OH.

HVEGTFTSDVSSFLEEQAAKEFIAWLVKGRG-OH [Val^8-Phe^19-Glu^22-GLP-1(7-37)OH] was tested. Which “GLP-1 receptor activation relative to Val^8-GLP-1(7-37)OH” value did it give?
The value was 1.5 fold of Val^8-GLP-1(7-37)OH.

With HVEGTFTSDFSSYLEEQAAKEFIAWLVKGRG-OH [Val^8-Phe^16-Glu^22-GLP-1(7-37)OH] as the binder, how does the “GLP-1 receptor activation relative to Val^8-GLP-1(7-37)OH” value read?
The value was 2.3 fold of Val^8-GLP-1(7-37)OH.

With HVEGTFTSDVSSYLEGQAAKEFIAWLVKGRH-OH [Val^8-His^37-GLP-1(7-37)OH] as the binder, how does the “GLP-1 receptor activation relative to Val^8-GLP-1(7-37)OH” value read?
The value was 1.2 fold of Val^8-GLP-1(7-37)OH.

For HVEGTFTSDVSSYLEEQAIKEFIAWLVKGRG-OH [Val^8-GLU^22-Ile^25-GLP-1(7-37)OH], which “GLP-1 receptor activation relative to Val^8-GLP-1(7-37)OH” value is on record?
The value was 3.1 fold of Val^8-GLP-1(7-37)OH.

HVEGTFTSDVSIYLEEQAAKEFIAWLVKGRG-OH [Val^8-Ile^18-Glu^22-GLP-1(7-37)OH] was tested. Which “GLP-1 receptor activation relative to Val^8-GLP-1(7-37)OH” value did it give?
The value was 4 fold of Val^8-GLP-1(7-37)OH.

How did the “GLP-1 receptor activation relative to Val^8-GLP-1(7-37)OH” value turn out when HVEGTWTSDVSSYLEGQAAKEFIAWLVKGRG-OH [Val^8-Trp^12-GLP-1(7-37)OH] was run?
Its value is 1.1 fold of Val^8-GLP-1(7-37)OH.

How did the “GLP-1 receptor activation relative to Val^8-GLP-1(7-37)OH” value turn out when HVEGTYTSDVSSYLEEQAAKEFIAWLVKGRG-OH [Val^8-Tyr^12-Glu^22-GLP-1(7-37)OH] was run?
Its value is 2.7 fold of Val^8-GLP-1(7-37)OH.

With HVEGTFTSDYSSYLEGQAAKEFIAWLVKGRG-OH [Val^8-Tyr^16-GLP-1(7-37)OH] as the binder, how does the “GLP-1 receptor activation relative to Val^8-GLP-1(7-37)OH” value read?
The value was 2.5 fold of Val^8-GLP-1(7-37)OH.

For HVDGIFTSDYSSYLEEQAAKEFIAWLVKGRG-OH [Val^8-Asp^9-Ile^11-Tyr^16-Glu^22-GLP-1(7-37)OH], which “GLP-1 receptor activation relative to Val^8-GLP-1(7-37)OH” value is on record?
Its value is 4.3 fold of Val^8-GLP-1(7-37)OH.

How did the “GLP-1 receptor activation relative to Val^8-GLP-1(7-37)OH” value turn out when HVEGTFTSDYSSWLEEQAAKEFIAWLVKGRG-OH [Val^8-Tyr^16-Trp^19-Glu^22-GLP-1(7-37)OH] was run?
Its value is 3.5 fold of Val^8-GLP-1(7-37)OH.

HVEGTFTSDWSSYLEEQAVKEFIAWLIKGRG-OH [Val^8-Trp^16-Glu^22-Val^25-Ile^33-GLP-1(7-37)OH] was tested. Which “GLP-1 receptor activation relative to Val^8-GLP-1(7-37)OH” value did it give?
The value was 5 fold of Val^8-GLP-1(7-37)OH.
